Data as given in the supplement of paper PMC10567573.

B1: KRT33B (parent)
chain: PAVDLNQVLNETRNQYEALVETNR

Variants of: B1
Experiment: protein stability index of a GFP-peptide fusion (GPS, HEK-293T) (PSI 1-6); higher = more stable
Details: c terminus: a fixed tail appended
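Further: lentivirally expressed fusions sorted by FACS into six bins by GFP to DsRed ratio, PSI derived from sequencing read proportions per bin multiplied by bin number.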

| Variant | protein stability index |
| --- | --- |
| L9P | 4.72 |
| L9V | 4.65 |
| L9T | 4.61 |
| L9G | 4.76 |
| L9Q | 4.24 |
| L9K | 5.09 |
| L9I | 3.55 |
| L9H | 4.2 |
| L9Y | 4.53 |
| L9M | 4.13 |
| L9S | 4.96 |
| L9N | 5.13 |
| L9C | 4.91 |
| L9D | 4.52 |
| L9E | 4.93 |
| L9W | 4.32 |
| L9A | 5.16 |
| L9F | 4.25 |
| L9R | 4.36 |
| Q7S | 4.01 |
| Q7Y | 3.83 |
| Q7A | 3.27 |
| Q7H | 4.38 |
| Q7V | 3.86 |

| Variant | protein stability index |
| --- | --- |
| Q7G | 4.59 |
| Q7T | 2.97 |
| Q7K | 3.91 |
| Q7I | 3.55 |
| Q7C | 3.57 |
| Q7R | 3.95 |
| Q7F | 3.79 |
| Q7L | 4.06 |
| Q7M | 4.24 |
| Q7W | 4.22 |
| Q7N | 4.33 |
| Q7P | 4.78 |
| Q7E | 3.11 |
| Q7D | 3.73 |
| Y16S | 5.12 |
| Y16K | 4.8 |
| Y16Q | 5.29 |
| Y16F | 3.5 |
| Y16A | 5.14 |
| Y16I | 4.17 |
| Y16G | 5.21 |
| Y16T | 5.15 |
| Y16E | 4.85 |
| Y16M | 4.39 |

| Variant | protein stability index |
| --- | --- |
| Y16C | 4.57 |
| Y16H | 5.02 |
| Y16P | 5.06 |
| Y16D | 4.98 |
| Y16R | 5.09 |
| Y16V | 4.92 |
| Y16W | 3.89 |
| Y16N | 5.25 |
| Y16L | 4.37 |
| R13N | 5.01 |
| R13W | 3.92 |
| R13L | 3.46 |
| R13A | 4.35 |
| R13V | 4.15 |
| R13T | 4.59 |
| R13M | 3.12 |
| R13P | 5.18 |
| R13C | 4.38 |
| R13Y | 3.69 |
| R13I | 3.32 |
| R13E | 4.86 |
| R13H | 4.76 |
| R13D | 4.93 |
| R13Q | 4.32 |

| Variant | protein stability index |
| --- | --- |
| R13G | 4.35 |
| R13K | 3.03 |
| R13S | 4.8 |
| R13F | 4.15 |
| N6W | 1.82 |
| N6E | 1.97 |
| N6G | 4.3 |
| N6H | 2.97 |
| N6R | 3.13 |
| N6C | 2.56 |
| N6S | 3.54 |
| N6P | 4.33 |
| N6F | 2.31 |
| N6L | 1.71 |
| N6M | 1.34 |
| N6V | 2.43 |
| N6A | 2.77 |
| N6T | 3.43 |
| N6K | 3.27 |
| N6D | 2.8 |
| N6I | 2.05 |
| N6Q | 2.83 |
| N6Y | 2.64 |
| A2E | 2.26 |

| Variant | protein stability index |
| --- | --- |
| A2P | 3.14 |
| A2D | 4.82 |
| A2S | 3.23 |
| A2K | 3.87 |
| A2R | 3.57 |
| A2F | 2.39 |
| A2Q | 3.11 |
| A2G | 3.95 |
| A2T | 3.52 |
| A2N | 4.4 |
| A2L | 3.25 |
| A2C | 2.87 |
| A2H | 3.93 |
| A2Y | 2.02 |
| A2W | 1.59 |
| A2I | 2.84 |
| A2M | 2.4 |
| A2V | 3.11 |
| Q15C | 3.87 |
| Q15K | 4.06 |
| Q15W | 2.86 |
| Q15N | 4.38 |
| Q15T | 4.22 |
| Q15V | 3.82 |

| Variant | protein stability index |
| --- | --- |
| Q15D | 4.33 |
| Q15E | 4.61 |
| Q15P | 4.39 |
| Q15M | 1.6 |
| Q15R | 4.37 |
| Q15L | 2.04 |
| Q15G | 4.45 |
| Q15F | 2.72 |
| Q15S | 3.95 |
| Q15A | 3.84 |
| Q15Y | 3.23 |
| Q15H | 3.95 |
| Q15I | 3.44 |
| V8T | 4.41 |
| V8H | 4.05 |
| V8F | 3.78 |
| V8I | 2.98 |
| V8C | 3.71 |
| V8Y | 2.49 |
| V8W | 3.42 |
| V8R | 4.93 |
| V8N | 4.83 |
| V8D | 4.77 |
| V8L | 1.45 |

| Variant | protein stability index |
| --- | --- |
| V8M | 2.66 |
| V8S | 4.43 |
| V8E | 4.7 |
| V8A | 3.84 |
| V8K | 4.56 |
| V8G | 4.91 |
| V8Q | 4.64 |
| V8P | 5.14 |
| E17Q | 4.4 |
| E17H | 3.9 |
| E17F | 2.9 |
| E17N | 3.61 |
| E17I | 3.13 |
| E17A | 3.65 |
| E17R | 3.96 |
| E17M | 3.55 |
| E17L | 3.73 |
| E17C | 3.65 |
| E17D | 4.23 |
| E17G | 3.91 |
| E17W | 3.54 |
| E17Y | 3.09 |
| E17S | 4.24 |
